Assay results as given in patent publication US20260347491.

Molecular target: human CD32b (FcgRIIb) (human) (UniProt P31994)
Experiment: FACS

Sequence of human CD32b (FcgRIIb) (human) (P31994 46-217): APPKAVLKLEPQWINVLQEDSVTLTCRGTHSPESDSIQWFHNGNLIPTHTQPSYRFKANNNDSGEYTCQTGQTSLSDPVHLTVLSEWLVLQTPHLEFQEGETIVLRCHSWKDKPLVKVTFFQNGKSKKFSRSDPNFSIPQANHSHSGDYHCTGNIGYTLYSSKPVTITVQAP

Trastuzumab (full) gave an EC50 of 14.1 nM.

With Pertuzumab (full) the EC50 was 1.35 nM.
